{"source": "patent US8242083B2", "about": "“Kinase substrates” (PerkinElmer Health Sciences, Inc., priority 2008, dated 2012)", "format_in_all_cases": "biochemical", "key": {"FES": {"target": "FES (Homo sapiens, UniProt P07332)", "sequence (P07332 whole entry, species assumed)": "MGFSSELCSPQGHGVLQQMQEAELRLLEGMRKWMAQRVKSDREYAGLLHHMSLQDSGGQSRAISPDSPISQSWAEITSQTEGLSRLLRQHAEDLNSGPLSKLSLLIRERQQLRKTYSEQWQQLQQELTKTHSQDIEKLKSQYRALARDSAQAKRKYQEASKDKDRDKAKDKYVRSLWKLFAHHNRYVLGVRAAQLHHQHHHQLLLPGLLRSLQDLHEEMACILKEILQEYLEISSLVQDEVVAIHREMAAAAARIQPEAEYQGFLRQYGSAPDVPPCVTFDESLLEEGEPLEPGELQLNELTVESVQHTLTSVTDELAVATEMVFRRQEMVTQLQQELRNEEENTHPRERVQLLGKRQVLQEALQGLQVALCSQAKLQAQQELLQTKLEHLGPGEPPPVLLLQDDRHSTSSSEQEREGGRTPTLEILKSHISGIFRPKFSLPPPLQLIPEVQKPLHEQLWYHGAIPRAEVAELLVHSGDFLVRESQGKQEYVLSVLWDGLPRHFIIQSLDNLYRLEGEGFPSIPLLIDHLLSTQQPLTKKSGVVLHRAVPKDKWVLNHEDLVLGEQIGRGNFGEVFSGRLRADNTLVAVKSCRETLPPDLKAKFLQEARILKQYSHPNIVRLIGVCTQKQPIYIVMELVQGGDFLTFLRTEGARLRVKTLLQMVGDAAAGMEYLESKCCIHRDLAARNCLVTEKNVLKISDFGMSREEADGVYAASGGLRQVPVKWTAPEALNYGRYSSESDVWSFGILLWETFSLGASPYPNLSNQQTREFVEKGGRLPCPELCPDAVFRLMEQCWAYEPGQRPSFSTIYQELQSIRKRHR", "assay": "TR-FRET kinase assay, FES", "details": "Kinase Concentration 1 nM; 50 nM ULight-labeled substrate, 200 micromolar ATP, 2 hours", "protocol": "(§1) TR-FRET kinase assays are performed under standardized conditions: various individual kinases are incubated with 50 nM of kinase substrate BRB1 labeled with the TR-FRET acceptor dye ULight (PerkinElmer) and 200 micromolar ATP in 10 μL of kinase assay buffer (50 mM HEPES pH7.5, 10 mM MgCl2, 3 mM MnCl2, 1 mM EGTA, 2 mM DTT and 0.01% Tween-20) for 2 hours at room temperature. Reactions are stopped with EDTA, and anti-phospho-tyrosine antibodies (clone PT66) labeled with the TR-FRET europium chelate donor dye are added to a final concentration of 2 nM in a final volume of 20 μL. The TR-FRET signal emitted at 665 nm is read one hour after the addition of antibodies using a TR-FRET plate reader such as the Envision® Multilabel Plate reader (PerkinElmer). The emitted signal at 665 nm is proportional to the extent of peptide phosphorylation, Control reactions indicative of background are performed excluding ATP from the reaction.\n(§2) Assay conditions are identical to those used described for FIG. 1."}, "RET": {"target": "RET (Homo sapiens, UniProt P07949)", "assay": "TR-FRET kinase assay, RET", "details": "Kinase Concentration 0.5 nM; 50 nM ULight-labeled substrate, 200 micromolar ATP, 2 hours", "protocol": "as §1, §2"}, "FER": {"target": "FER (Homo sapiens, UniProt P16591)", "sequence (P16591 whole entry, species assumed)": "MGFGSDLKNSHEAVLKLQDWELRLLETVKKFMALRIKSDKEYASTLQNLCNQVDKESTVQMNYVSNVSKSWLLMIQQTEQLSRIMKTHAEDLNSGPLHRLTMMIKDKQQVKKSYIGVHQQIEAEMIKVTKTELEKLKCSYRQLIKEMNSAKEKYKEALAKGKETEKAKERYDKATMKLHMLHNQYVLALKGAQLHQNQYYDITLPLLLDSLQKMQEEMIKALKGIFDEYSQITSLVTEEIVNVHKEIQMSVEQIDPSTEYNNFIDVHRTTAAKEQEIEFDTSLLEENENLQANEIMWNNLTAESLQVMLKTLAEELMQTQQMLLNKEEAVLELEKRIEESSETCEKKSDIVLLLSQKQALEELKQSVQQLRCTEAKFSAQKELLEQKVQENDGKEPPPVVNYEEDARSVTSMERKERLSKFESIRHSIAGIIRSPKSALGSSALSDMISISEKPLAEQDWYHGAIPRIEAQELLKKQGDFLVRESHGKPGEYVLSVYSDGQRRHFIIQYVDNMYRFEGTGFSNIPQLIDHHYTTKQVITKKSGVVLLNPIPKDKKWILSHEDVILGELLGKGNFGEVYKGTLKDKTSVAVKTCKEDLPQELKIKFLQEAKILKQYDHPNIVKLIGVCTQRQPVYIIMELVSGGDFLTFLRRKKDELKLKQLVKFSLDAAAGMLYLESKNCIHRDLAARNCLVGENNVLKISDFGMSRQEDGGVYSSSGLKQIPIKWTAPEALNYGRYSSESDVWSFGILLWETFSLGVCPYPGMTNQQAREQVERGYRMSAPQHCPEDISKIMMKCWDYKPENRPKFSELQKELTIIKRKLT", "assay": "TR-FRET kinase assay, FER", "details": "Kinase Concentration 0.25 nM; 50 nM ULight-labeled substrate, 200 micromolar ATP, 2 hours", "protocol": "as §1, §2"}, "AXL": {"target": "AXL (Homo sapiens, UniProt P30530)", "assay": "TR-FRET kinase assay, AXL", "details": "Kinase Concentration 4 nM; 50 nM ULight-labeled substrate, 200 micromolar ATP, 2 hours", "protocol": "as §1, §2"}, "LYNa": {"target": "LYNa (Homo sapiens, UniProt P07948)", "sequence (P07948 whole entry, species assumed)": "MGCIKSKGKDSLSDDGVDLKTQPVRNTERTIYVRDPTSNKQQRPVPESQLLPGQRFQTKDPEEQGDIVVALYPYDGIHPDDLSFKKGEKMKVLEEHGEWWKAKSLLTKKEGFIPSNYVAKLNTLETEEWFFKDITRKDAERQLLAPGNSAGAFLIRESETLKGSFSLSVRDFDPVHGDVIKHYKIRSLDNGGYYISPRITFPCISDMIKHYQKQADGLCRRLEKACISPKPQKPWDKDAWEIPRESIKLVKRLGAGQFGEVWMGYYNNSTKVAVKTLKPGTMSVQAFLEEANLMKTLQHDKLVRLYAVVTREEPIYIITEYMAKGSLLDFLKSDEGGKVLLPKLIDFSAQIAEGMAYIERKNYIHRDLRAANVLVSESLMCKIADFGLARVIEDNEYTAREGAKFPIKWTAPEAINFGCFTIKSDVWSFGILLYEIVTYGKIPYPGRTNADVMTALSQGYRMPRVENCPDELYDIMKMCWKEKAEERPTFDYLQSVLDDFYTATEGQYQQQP", "assay": "TR-FRET kinase assay, LYNa", "details": "Kinase Concentration 0.5 nM; 50 nM ULight-labeled substrate, 200 micromolar ATP, 2 hours", "protocol": "as §1, §2"}, "EphA6": {"target": "T1, EphA6 (Homo sapiens, UniProt Q9UF33)", "T1 sequence (Q9UF33 23-1036)": "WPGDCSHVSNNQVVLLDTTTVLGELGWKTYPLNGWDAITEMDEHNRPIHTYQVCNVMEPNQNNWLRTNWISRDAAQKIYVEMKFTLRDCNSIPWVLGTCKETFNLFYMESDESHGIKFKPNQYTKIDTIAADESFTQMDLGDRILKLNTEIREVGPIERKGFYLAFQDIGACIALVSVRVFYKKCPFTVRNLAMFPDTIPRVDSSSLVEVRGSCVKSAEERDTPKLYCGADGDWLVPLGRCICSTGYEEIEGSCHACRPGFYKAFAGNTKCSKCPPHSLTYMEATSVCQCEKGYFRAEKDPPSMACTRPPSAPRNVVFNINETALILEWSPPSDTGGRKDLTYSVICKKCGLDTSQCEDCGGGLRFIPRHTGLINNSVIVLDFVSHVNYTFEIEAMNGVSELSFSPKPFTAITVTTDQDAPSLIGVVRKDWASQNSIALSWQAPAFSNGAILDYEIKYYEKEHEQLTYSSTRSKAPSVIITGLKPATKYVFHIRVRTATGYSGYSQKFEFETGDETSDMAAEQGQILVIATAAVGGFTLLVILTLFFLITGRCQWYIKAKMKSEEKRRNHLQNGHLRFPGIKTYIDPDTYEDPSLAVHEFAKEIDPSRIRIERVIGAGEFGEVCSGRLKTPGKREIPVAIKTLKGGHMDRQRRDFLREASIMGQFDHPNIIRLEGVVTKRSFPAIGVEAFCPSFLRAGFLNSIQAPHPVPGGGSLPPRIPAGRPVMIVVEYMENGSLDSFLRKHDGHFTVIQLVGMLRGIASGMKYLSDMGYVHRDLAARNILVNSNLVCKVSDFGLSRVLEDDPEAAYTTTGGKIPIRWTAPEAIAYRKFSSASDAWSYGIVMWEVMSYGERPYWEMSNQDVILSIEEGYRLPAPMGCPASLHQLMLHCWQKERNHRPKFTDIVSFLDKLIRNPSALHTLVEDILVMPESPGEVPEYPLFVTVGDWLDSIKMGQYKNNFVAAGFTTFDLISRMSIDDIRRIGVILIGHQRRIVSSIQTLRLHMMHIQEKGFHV", "assay": "TR-FRET kinase assay, EphA6", "details": "Kinase Concentration 0.5 nM; 50 nM ULight-labeled substrate, 200 micromolar ATP, 2 hours", "protocol": "as §1, §2"}, "HER2": {"target": "HER2 (Homo sapiens, UniProt P04626)", "assay": "TR-FRET kinase assay, HER2", "details": "Kinase Concentration 10 nM; 50 nM ULight-labeled substrate, 200 micromolar ATP, 2 hours", "protocol": "as §1, §2"}, "INSR": {"target": "INSR (Homo sapiens, UniProt P06213)", "assay": "TR-FRET kinase assay, INSR", "details": "Kinase Concentration 20 nM; 50 nM ULight-labeled substrate, 200 micromolar ATP, 2 hours", "protocol": "as §1, §2"}, "TNK1": {"target": "T2, TNK1 (Homo sapiens, UniProt Q13470)", "T2 sequence (Q13470 1-666)": "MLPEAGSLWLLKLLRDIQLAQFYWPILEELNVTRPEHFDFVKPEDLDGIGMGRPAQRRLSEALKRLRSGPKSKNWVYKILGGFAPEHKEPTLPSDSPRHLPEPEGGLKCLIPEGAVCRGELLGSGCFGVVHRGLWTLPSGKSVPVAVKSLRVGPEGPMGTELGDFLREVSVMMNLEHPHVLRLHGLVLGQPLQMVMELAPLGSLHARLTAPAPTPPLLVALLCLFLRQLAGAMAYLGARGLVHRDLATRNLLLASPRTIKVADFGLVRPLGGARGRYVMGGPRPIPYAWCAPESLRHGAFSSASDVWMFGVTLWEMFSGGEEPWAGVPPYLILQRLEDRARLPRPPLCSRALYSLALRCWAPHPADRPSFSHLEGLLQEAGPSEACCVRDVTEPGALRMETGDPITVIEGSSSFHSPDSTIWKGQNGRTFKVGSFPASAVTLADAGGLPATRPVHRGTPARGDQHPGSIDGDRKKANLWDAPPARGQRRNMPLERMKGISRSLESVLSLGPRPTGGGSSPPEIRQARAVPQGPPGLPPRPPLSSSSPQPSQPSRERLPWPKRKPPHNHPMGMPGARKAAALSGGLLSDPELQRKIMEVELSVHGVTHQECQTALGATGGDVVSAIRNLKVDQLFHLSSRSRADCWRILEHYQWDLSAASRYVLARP", "assay": "TR-FRET kinase assay, TNK1", "details": "Kinase Concentration 1 nM; 50 nM ULight-labeled substrate, 200 micromolar ATP, 2 hours", "protocol": "as §1, §2"}}}
{"sequence": "C AYE AYE AYE K EYA EYA EYA K AYA EYE R (CAYEAYEAYEKEYAEYAEYAKAYAEYER; tyrosine kinase substrate peptide) [BRB1]", "values": [{"measurement": "Signal to Noise ratio with BRB1 Peptide", "setting": "FES", "result": 24.9}, {"measurement": "Signal to Noise ratio with BRB1 Peptide", "setting": "RET", "result": 20.3}, {"measurement": "Signal to Noise ratio with BRB1 Peptide", "setting": "FER", "result": 31.0}, {"measurement": "Signal to Noise ratio with BRB1 Peptide", "setting": "AXL", "result": 1.8}, {"measurement": "Signal to Noise ratio with BRB1 Peptide", "setting": "LYNa", "result": 32.5}, {"measurement": "Signal to Noise ratio with BRB1 Peptide", "setting": "EphA6", "result": 5.4}, {"measurement": "Signal to Noise ratio with BRB1 Peptide", "setting": "HER2", "result": 1.4}, {"measurement": "Signal to Noise ratio with BRB1 Peptide", "setting": "INSR", "result": 4.0}, {"measurement": "Signal to Noise ratio with BRB1 Peptide", "setting": "TNK1", "result": 6.8}]}
